Measurements taken from publication PMC9758440.

Target: N-terminal SNAP-tagged FGFR1c on the surface of stable COS7 cells (human) (UniProt P11362)
Assay: FRET or BRET

## N-terminal SNAP-tagged FGFR1c on the surface of stable COS7 cells (from UniProt P11362 22-822) (receptor)
  fold increase of the TR-FRET signal with FGF2: 2.8 fold
